Results as given in patent EP0672680A1 (KYOWA HAKKO KOGYO CO., LTD., dated 1995).
Ends that are not written are not given here.

B1: compound (3) (peptide)
peptide: VYAVTGRGDSPASSGCVLS-OH
modifications: not fully specified (bridges); also: cyclic amide Gly alpha-amino to Asp side chain, places unclear
B2: compound (5) (peptide)
peptide: VYAVTGRGDSPAAFGGRIDRIGAA-OH
modifications: not fully specified (bridges); also: cyclic amide Gly alpha-amino to Asp side chain, places unclear
B3: compound (4) (peptide)
peptide: VYAVTGRGDSPAFGGRIDRI-OH
modifications: not fully specified (bridges); also: cyclic amide Gly alpha-amino to Asp side chain, places unclear

Legend:
[1] = target: T1, protein-farnesyltransferase derived from bovine brains (bovine, UniProt P29702 2-375; P49355 1-437); experiment: cell-based or functional assay
[2] = target: T1, protein-farnesyltransferase derived …; experiment: cell-based or functional assay; remark: listed apart in the source

| Binder | IC50, protein-farnesyltransferase inhibiting activity in SPA enzyme assay kit (intake of [3H]-farnesyl diphosphate by biotin-lamin-B peptide) [1] [µM] | IC50, protein-farnesyltransferase-inhibiting activity (transfer of [3H]-farnesyl diphosphate to v-Ki-Ras p21) [2] [µM] |
| --- | --- | --- |
| B1 | 0.42 | 0.56 |
| B2 | – | 19 |
| B3 | – | 9 |
